According to PMC11919701:
Values belong to the substance of their own block, whether it stands above or below them.

What was measured:
[1] = molecular target: GFP-fused CtMrs2 106-539 E374A;E378A (Chaetomium thermophilum); assay: SEC; purified GFP-fused CtMrs2 forms used for the limited proteolysis assay; final SEC buffer as buffer A but pH 8.0, DDM
[2] = molecular target: GFP-fused CtMrs2 106-539 E374R (Chaetomium thermophilum); assay: as above
[3] = molecular target: GFP-fused CtMrs2 (His10-GFP-G4S-TEV-CtMrs2 106-539), wild type (Chaetomium thermophilum); assay: native gel or EMSA; Coomassie-stained blue native PAGE of purified detergent-solubilised GFP-fused CtMrs2
[4] = molecular target: GFP-fused CtMrs2 (His10-GFP-G4S-TEV-CtMrs2 106-539), wild type (Chaetomium thermophilum); assay: SEC; purified GFP-fused CtMrs2 forms used for the limited proteolysis assay; final SEC buffer as buffer A but pH 8.0, DDM
[5] = molecular target: GFP-fused CtMrs2 (His10-GFP-G4S-TEV-CtMrs2 106-539), wild type (Chaetomium thermophilum); assay: SEC; detergent-solubilised GFP-fused CtMrs2 on Superose 6; buffer A (50 mM HEPES-NaOH pH 7.5, 150 mM NaCl, 10% glycerol) with 0.05% DDM and 2 mM MgCl2
[6] = molecular target: CtMrs2 106-539 lacking GFP (TEV-cleaved), in MSP1D1/POPC nanodiscs, closed-state sample with Mg2+ (Chaetomium thermophilum); assay: cryo-EM structure; closed state: MSP1D1/POPC nanodiscs, 50 mM HEPES-Na pH 7.5, 100 mM NaCl, 2 mM MgCl2 plus additional 10 mM MgCl2; C1 and C5 maps
[7] = molecular target: GFP-fused CtMrs2 106-539 S396A;S397A (Chaetomium thermophilum); assay: SEC; purified GFP-fused CtMrs2 forms used for the limited proteolysis assay; final SEC buffer as buffer A but pH 8.0, DDM
[8] = molecular target: GFP-fused CtMrs2 106-539 S328A;T329A (Chaetomium thermophilum); assay: as above
[9] = molecular target: CtMrs2 106-539 in MSP1D1/POPC nanodiscs, open-state sample prepared with EDTA (Chaetomium thermophilum); assay: cryo-EM structure; open state: MSP1D1/POPC nanodiscs, 50 mM HEPES pH 7.5, 100 mM NaCl, 2 mM EDTA, 1 mM fluorinated Fos-choline-8; C1 and C5 maps

Substance: GFP-fused CtMrs2 106-539 E374R (natural protein)
stoichiometry N [2]: 5

Substance: CtMrs2 106-539 lacking GFP (TEV-cleaved), in MSP1D1/POPC nanodiscs, closed-state sample with Mg2+ (natural protein)
stoichiometry N [6]: 5

Substance: GFP-fused CtMrs2 106-539 S328A;T329A (natural protein)
stoichiometry N [8]: 5

Now from value to substance:

stoichiometry N [1]: 5
Substance: GFP-fused CtMrs2 106-539 E374A;E378A (natural protein)

stoichiometry N [3]: 5 | stoichiometry N [4]: 5 | stoichiometry N [5]: 5
Substance: GFP-fused CtMrs2 (His10-GFP-G4S-TEV-CtMrs2 106-539), wild type (natural protein)

stoichiometry N [7]: 5
Substance: GFP-fused CtMrs2 106-539 S396A;S397A (natural protein)

stoichiometry N [9]: 5
Substance: CtMrs2 106-539 in MSP1D1/POPC nanodiscs, open-state sample prepared with EDTA (natural protein)
